Results taken from PMC9705548, “Altered tRNA processing is linked to a distinct and unusual La protein in Tetrahymena thermophila”.

Columns and labels:
Mlp1 [1] = target: T1, Mlp1 (Tetrahymena thermophila, UniProt Q23RK6 1-340); assay: EMSA; EMSA: 20 mM Tris-HCl pH 7.4, 100 mM KCl, 1 mM EDTA, 5 mM beta-mercaptoethanol, 10% glycerol; ~0.1 nM RNA refolded from 95 C; 30 min at 30 C; 8% native PAGE at 4 C; settings: protein: recombinant, tags: N-terminal 6xHis (pET28a)
T1 sequence: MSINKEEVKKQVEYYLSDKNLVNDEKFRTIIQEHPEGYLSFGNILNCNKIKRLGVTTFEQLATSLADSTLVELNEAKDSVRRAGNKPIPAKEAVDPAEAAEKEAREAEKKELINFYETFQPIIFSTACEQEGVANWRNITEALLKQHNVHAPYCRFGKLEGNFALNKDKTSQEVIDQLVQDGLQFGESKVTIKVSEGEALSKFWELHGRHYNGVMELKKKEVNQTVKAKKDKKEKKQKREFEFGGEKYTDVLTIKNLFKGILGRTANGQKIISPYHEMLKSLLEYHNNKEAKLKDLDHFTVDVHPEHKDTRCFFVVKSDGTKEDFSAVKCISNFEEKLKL

Mlp1 Q11A/Y14A = target: T2, Mlp1 Q11A/Y14A (Tetrahymena thermophila, UniProt Q23RK6 1-340, Q11A;Y14A); assay: as above; settings: protein: recombinant; tags: N-terminal 6xHis (pET28a)
T2 sequence: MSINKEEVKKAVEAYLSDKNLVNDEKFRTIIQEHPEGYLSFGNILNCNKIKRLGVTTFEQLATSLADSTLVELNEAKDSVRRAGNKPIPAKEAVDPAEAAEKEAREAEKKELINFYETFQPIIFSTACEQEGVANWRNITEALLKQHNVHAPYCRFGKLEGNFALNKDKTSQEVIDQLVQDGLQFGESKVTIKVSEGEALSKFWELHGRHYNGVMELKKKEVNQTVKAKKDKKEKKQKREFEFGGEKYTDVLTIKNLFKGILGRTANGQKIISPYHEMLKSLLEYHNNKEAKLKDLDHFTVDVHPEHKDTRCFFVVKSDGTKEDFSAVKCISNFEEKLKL

Mlp1 1-250 = target: T3, Mlp1 1-250 (Tetrahymena thermophila, UniProt Q23RK6 1-250); assay: as above; settings: protein: recombinant; tags: N-terminal 6xHis (pET28a)
T3 sequence: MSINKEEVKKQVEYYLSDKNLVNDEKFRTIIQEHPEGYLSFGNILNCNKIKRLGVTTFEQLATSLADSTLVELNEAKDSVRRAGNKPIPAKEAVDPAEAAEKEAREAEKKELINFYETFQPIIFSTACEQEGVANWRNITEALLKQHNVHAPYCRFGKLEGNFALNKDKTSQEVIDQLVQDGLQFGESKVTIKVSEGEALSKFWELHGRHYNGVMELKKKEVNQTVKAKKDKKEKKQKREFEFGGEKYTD

Mlp1 1-95 = target: T4, Mlp1 1-95 (Tetrahymena thermophila, UniProt Q23RK6 1-95); assay: as above; settings: protein: recombinant; tags: N-terminal 6xHis (pET28a); label: 32P
T4 sequence: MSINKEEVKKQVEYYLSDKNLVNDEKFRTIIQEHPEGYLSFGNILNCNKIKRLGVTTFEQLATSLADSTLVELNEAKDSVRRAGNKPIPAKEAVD

Mlp1 95-250 = target: T5, Mlp1 95-250 (Tetrahymena thermophila, UniProt Q23RK6 95-250); assay: as above; settings: protein: recombinant; tags: N-terminal 6xHis (pET28a); label: 32P
T5 sequence: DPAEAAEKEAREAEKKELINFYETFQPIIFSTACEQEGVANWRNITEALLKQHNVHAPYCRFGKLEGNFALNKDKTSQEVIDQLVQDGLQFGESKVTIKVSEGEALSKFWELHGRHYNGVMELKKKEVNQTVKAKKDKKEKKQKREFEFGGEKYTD

hLa = target: T6, hLa (Homo sapiens, UniProt P05455 1-408); assay: competition; EMSA: 20 mM Tris-HCl pH 7.4, 100 mM KCl, 1 mM EDTA, 5 mM beta-mercaptoethanol, 10% glycerol; ~0.1 nM RNA refolded from 95 C; 30 min at 30 C; 8% native PAGE at 4 C; settings: protein: recombinant; tags: 6xHis (encoded in reverse primer, pET28a); label: none
T6 sequence: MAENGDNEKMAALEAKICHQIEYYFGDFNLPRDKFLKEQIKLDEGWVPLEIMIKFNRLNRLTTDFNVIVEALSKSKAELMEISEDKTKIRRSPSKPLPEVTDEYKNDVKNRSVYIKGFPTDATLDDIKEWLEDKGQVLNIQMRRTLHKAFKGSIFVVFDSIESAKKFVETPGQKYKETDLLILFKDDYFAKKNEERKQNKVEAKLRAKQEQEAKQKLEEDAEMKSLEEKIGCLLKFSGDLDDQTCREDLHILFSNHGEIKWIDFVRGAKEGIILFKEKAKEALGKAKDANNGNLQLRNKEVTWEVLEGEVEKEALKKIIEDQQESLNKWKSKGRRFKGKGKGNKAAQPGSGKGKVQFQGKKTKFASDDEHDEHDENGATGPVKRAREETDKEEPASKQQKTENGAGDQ

Mlp1 [2] = target: T1, Mlp1; assay: as above; settings: protein: recombinant; tags: N-terminal 6xHis (pET28a); label: none
Mlp1 [3] = target: T1, Mlp1; assay: EMSA; 20 mM Tris-HCl pH 7.4, 100 mM KCl, 1 mM EDTA, 5 mM beta-mercaptoethanol, 10% glycerol; ~0.1 nM RNA; 30 min at 30 C; 8% native PAGE at 4 C; settings: protein: recombinant, tags: N-terminal 6xHis (pET28a)
[4] = label: 32P-UTP body label, tRNA fold

**Q.** Does CUGCUGUUUU (ssRNA) [4U (CUGCUGUUUU-3'OH)] bind (Mlp1 [1])?
**A.** binds

**Q.** Does CUGCUGUUUU (ssRNA) [4U (CUGCUGUUUU-3'OH)] bind (Mlp1 Q11A/Y14A)?
**A.** no binding

**Q.** Does CUGCUGUUUU (ssRNA) [4U (CUGCUGUUUU-3'OH)] bind (Mlp1 1-250)?
**A.** binds

**Q.** What does the source list for CUGCUGUUUU (ssRNA) [uridylate RNA of Supplementary Fig. S4b]?
**A.** binding result (Mlp1 1-95): no binding; binding result (Mlp1 95-250): no binding

**Q.** Does CCCCCCCCCC (ssRNA) [C10] bind (Mlp1 [1]; label: 32P)?
**A.** no binding

**Q.** Does CUGCUGCCCC (ssRNA) [4C] bind (hLa)?
**A.** no binding

**Q.** Does CUGCUGUUUC (ssRNA) [U-1C] bind (Mlp1 [2])?
**A.** binds

**Q.** Does CUGCUGUUCU (ssRNA) [U-2C] bind (Mlp1 [2])?
**A.** binds

**Q.** Does CUGCUGUCUU (ssRNA) [U-3C] bind (Mlp1 [2])?
**A.** binds

B1: pre-tRNA LeuAAG 5' 3' (structured_RNA)
RNA: GAGCGAAGAUGAAGUGGCCGAGCGGUCUAAGGCGGUAGAUUAAGGCUCUAUUCCGAAAGGGCGCGAGUUCGAAUCUCGCCUUCAUCAGAUUUUU
**Q.** How did the Kd (Mlp1 [3]; tRNA fold) turn out when B1 was run?
**A.** 586 ± 15 nM

B2: pre-tRNA GlnUUA 5' 3' (structured_RNA)
RNA: GCAUGUCCGGUUCCAUAGUAUAGUGGUUAGUACUGGGGACUUUAAAUCCCUUGACCUGGGUUCGAAUCCCAGUGGGACCUGCUUUUU
**Q.** For B2, which Kd (Mlp1 [3]; [4]) is on record?
**A.** 687 ± 44 nM

B3: pre-tRNA LeuAAG 5'-leader only (+5'PPP) (structured_RNA)
RNA: GAGCGAAGAUGAAGUGGCCGAGCGGUCUAAGGCGGUAGAUUAAGGCUCUAUUCCGAAAGGGCGCGAGUUCGAAUCUCGCCUUCAUCA
**Q.** For B3, which Kd (Mlp1 [3]; tRNA fold) is on record?
**A.** 714 ± 21 nM

B4: mature tRNA LeuAAG (structured_RNA)
RNA: GAUGAAGUGGCCGAGCGGUCUAAGGCGGUAGAUUAAGGCUCUAUUCCGAAAGGGCGCGAGUUCGAAUCUCGCCUUCAUCA
**Q.** B4 was tested. Which Kd (Mlp1 [3]; tRNA fold) did it give?
**A.** 831 ± 33 nM

B5: mature tRNA GlnUUA (structured_RNA)
RNA: GGUUCCAUAGUAUAGUGGUUAGUACUGGGGACUUUAAAUCCCUUGACCUGGGUUCGAAUCCCAGUGGGACCU
**Q.** For B5, which Kd (Mlp1 [3]; [4]) is on record?
**A.** 801 ± 62 nM

B6: pre-tRNA LeuAAG 3'-trailer only (structured_RNA)
RNA: GAUGAAGUGGCCGAGCGGUCUAAGGCGGUAGAUUAAGGCUCUAUUCCGAAAGGGCGCGAGUUCGAAUCUCGCCUUCAUCAGAUUUUU
**Q.** How did the Kd (Mlp1 [3]; label: 32P-UTP body label) turn out when B6 was run?
**A.** 658 ± 36 nM

B7: pre-tRNA GlnUUA 3'-trailer only (structured_RNA)
RNA: GGUUCCAUAGUAUAGUGGUUAGUACUGGGGACUUUAAAUCCCUUGACCUGGGUUCGAAUCCCAGUGGGACCUGCUUUUU
**Q.** B7 was tested. Which Kd (Mlp1 [3]; label: 32P-UTP body label) did it give?
**A.** 740 ± 40 nM

B8: pre-tRNA GlnUUA 5'-leader only (structured_RNA)
RNA: GCAUGUCCGGUUCCAUAGUAUAGUGGUUAGUACUGGGGACUUUAAAUCCCUUGACCUGGGUUCGAAUCCCAGUGGGACCU
**Q.** For B8, which Kd (Mlp1 [3]; label: 32P-UTP body label) is on record?
**A.** 804 ± 16 nM
